Measurements taken from patent US10758526B2, “Combination therapies using agents that target tumor-associated stroma or tumor cells and other pathways” (BIOMED VALLEY DISCOVERIES, INC., priority 2014, dated 2020).

Tests used:
[1] = Pharmacokinetics of TEM8 antibodies in mouse, multiple dose; type: in vivo
Text: (§1) Tables 8 and 9 show pharmacokinetic properties of TEM8 antibodies according to the present invention in mouse for single dose (Table 8) and multiple dose (Table 9) treatments.

UACC melanoma cells = experiment: TEM8 antibody efficacy in UACC melanoma model; type: in vivo, mice
Description: UACC melanoma cells were cultured and injected subcutaneously into mice. Treatment was initiated with a tumor volume of 50 mm^3, and treatment groups consisted of one of four TEM8 antibodies (M825, M830, M863, and M822), each dosed at 15 mg/kg, 3 times per week for 3-4 weeks.

[2] = tested on: MC38 colon carcinoma liver metastasis; experiment: Efficacy of M830 in MC38 colon carcinoma liver metastasis model; type: in vivo, C57BL/6 mice
Text: C57BL/6 mice were challenged with MC38 colon carcinoma liver metastasis by intrasplenic injections of cultured cells.

[3] = tested on: DLD-1 colorectal adenocarcinoma xenograft; experiment: Efficacy of M830 alone and in combination in the DLD-1 colorectal adenocarcinoma xenograft model; type: in vivo, mice; conditions: for % Tumor Reduction vs. Vehicle at Day 21 / % Tumor Reduction vs. combination partner at Day (#): DLD1 Colon; for % Tumor Reduction vs. Vehicle at Day 21: 3 times per week; for % Tumor Reduction vs. combination partner at Day (#): Day 21; for combination compared with any agent alone / efficacy against DLD-1 cancer cells in the xenograft model: first study
Description: Tumor weights were calculated following surgical removal. […] Irinotecan was given once per week at 60 mg/kg i.v. and bevacizumab was dosed at 5 mg/kg i.p., three times per week.
In a second study, treatment was initiated with a large tumor volume of approximately 170 mm^3. M830 alone or in combinations with bevacizumab, irinotecan, or both, was given as a loading dose of 20 mg/kg followed by 5 mg/kg three times per week. The doses of bevacizumab and irinotecan were the same as in the first study. An additional group received a combination of bevacizumab and irinotecan without the M830 antibody.

mTEM8-Fc = target: T1, mTEM8-Fc (Mus musculus, UniProt Q9CZ52); experiment: Biocore affinity measurement of anti-TEM8 Fabs, mTEM8-Fc; type: binding
T1 construct: Fc
T1 sequence (Q9CZ52 31-319 limits assumed): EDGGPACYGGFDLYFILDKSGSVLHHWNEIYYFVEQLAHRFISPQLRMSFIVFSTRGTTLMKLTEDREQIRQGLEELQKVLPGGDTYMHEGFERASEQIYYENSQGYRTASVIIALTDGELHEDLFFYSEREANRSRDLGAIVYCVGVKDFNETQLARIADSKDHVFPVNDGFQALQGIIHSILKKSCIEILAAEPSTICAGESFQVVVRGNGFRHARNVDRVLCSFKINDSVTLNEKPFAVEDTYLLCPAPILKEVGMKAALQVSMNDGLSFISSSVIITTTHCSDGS

hTEM8-AP = target: T2, hTEM8-AP (Homo sapiens, UniProt Q9H6X2); experiment: Biocore affinity measurement of anti-TEM8 Fabs, hTEM8-AP; type: binding
T2 sequence (Q9H6X2 33-321 limits assumed): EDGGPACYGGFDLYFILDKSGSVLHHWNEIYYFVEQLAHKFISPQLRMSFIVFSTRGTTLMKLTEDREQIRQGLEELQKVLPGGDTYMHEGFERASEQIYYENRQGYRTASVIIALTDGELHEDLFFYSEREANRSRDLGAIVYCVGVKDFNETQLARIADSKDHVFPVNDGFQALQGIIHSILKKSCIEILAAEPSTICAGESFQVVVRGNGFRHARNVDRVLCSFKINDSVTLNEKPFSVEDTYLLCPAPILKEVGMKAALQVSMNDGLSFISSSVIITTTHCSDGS

[4] = tested on: HCT116 colorectal carcinoma xenograft; experiment: Efficacy of TEM8 antibodies in the HCT116 colorectal carcinoma xenograft model; type: in vivo, mice; conditions: HCT116 Colon; M830 alone; IP, 3 times per week; treatment initiated at 60-80 mm^3
Description: Tumor cells were cultured in RPMI-1640 medium supplemented with 10% fetal bovine serum, 2 mM glutamine, 100 units/mL penicillin G sodium, 100 μg/mL streptomycin sulfate, and 25 μg/mL gentamicin. The tumor cells were grown in tissue culture flasks in a humidified incubator at 37° C., in an atmosphere of 5% CO2 and 95% air.
2.5×10^6 to 5×10^6 HCT116 tumor cells were injected subcutaneously into the flank of mice. Tumor weights were calculated following surgical removal. Treatment was initiated when tumor volume reached 60-80 mm^3. Dosing volume was 10 mL/kg (0.2 mL/20 g mouse).
TEM8 Ab (hIgG1) doses were 5 and 15 mg/kg, three times per week, for 3 weeks. Bevacizumab was dosed at 5 mg/kg, twice per week, for 3 weeks. FIG. 1B and FIG. 1D show mean tumor growth and percent body weight change for each group, respectively, over the time course of the study.

[5] = Pharmacokinetics of TEM8 antibodies in mouse, single dose; type: in vivo
Text: as §1

[6] = tested on: H460 non-small cell lung carcinoma xenograft; experiment: Efficacy of M830 in the H460 non-small cell lung carcinoma xenograft model; type: in vivo, athymic nude mice; conditions: for % Tumor Reduction vs. Vehicle at Day 21: 3 times per week; for % Tumor Reduction vs. combination partner at Day (#): Day 32
Description: Animals were monitored for regression responses.
The statistical tests were not adjusted for multiple comparisons.
Cultured H460 cells were harvested during exponential growth and resuspended in phosphate buffered saline at a concentration of 1×10^8 cells/mL. 1.0×10^7 tumor cells were injected subcutaneously into the flank of athymic nude mice. Animals were euthanized when tumors reached the pre-determined volume endpoint of 2000 mm^3 or on the final day (Day 88), whichever came first.

[7] = Group 7: M830 in combination with paclitaxel, n=10
[8] = H460 Lung, combination partner Paclitaxel
[9] = M830 15 mg/kg IP in combination with bevacizumab 5 mg/kg IP
[10] = M830 in combination with bevacizumab, n=10
[11] = combination of M830 and paclitaxel

B1: M830: TEM8 monoclonal antibody (hIgG1), VH SEQ ID NO:5 and VL SEQ ID NO:6 (antibody, V domains shown)
VH: EVQLVESGGGVVQPGRSVRLSCAASGFTFSTYTMHWVRQAPGKGLEWVAIISNDGSNKYYADPVRGRFTISRDNSKNTLYLQMNSLRAEDTAVYYCVRGSSWYRGNWFDPWGQGTLVTVSS
VL: DIQMTQSPSSLSASVGDRVTIACRASQTISRYLNWYQQKPGKAPKLLIYAASSLQSGVSSRFSGSGSGTEFTLTISSLQPEDFATYFCQQTYSPPITFGQGTRLEIKR
modifications: TEM830 mAb VH; TEM830 mAb VL
- AUCI ([1]; 5 mg/kg): 4316.79 µg·h/mL
- AUCT ([1]; 5 mg/kg): 4315.918 µg·h/mL
- CLF ([1]; 5 mg/kg): 1.16 mL/h/kg
- CMAX ([1]; 5 mg/kg): 86400 ng/mL
- HALF ([1]; 5 mg/kg): 22.88 h
- KEL ([1]; 5 mg/kg): 0.0303 h⁻¹
- TMAX ([1]; 5 mg/kg): 3 h
- VZF ([1]; 5 mg/kg): 0.03824 L/kg
- AUCI ([1]; 15 mg/kg): 23053.875 µg·h/mL
- AUCT ([1]; 15 mg/kg): 23052.853 µg·h/mL
- CLF ([1]; 15 mg/kg): 0.65 mL/h/kg
- CMAX ([1]; 15 mg/kg): 330000 ng/mL
- HALF ([1]; 15 mg/kg): 18.70 h
- KEL ([1]; 15 mg/kg): 0.0371 h⁻¹
- TMAX ([1]; 15 mg/kg): 3 h
- VZF ([1]; 15 mg/kg): 0.01755 L/kg
- slowing of tumor growth (UACC melanoma cells; 15 mg/kg, 3 times per week for 3-4 weeks, treatment initiated at 50 mm^3): effective at slowing tumor growth
- % Tumor Reduction vs. Vehicle at Day 21 (UACC melanoma cells; UACC Melanoma, M830 alone, IP, 3 times per week, treatment initiated at about 50 mm^3): 65%
- survival of mice ([2]; P=0.0001): significantly improved the survival
- median survival rate ([2]; versus 11 days for vehicle treated mice): 17 days
- % Tumor Reduction vs. Vehicle at Day 21 ([3]; M830 alone, IP): 68%
- % Tumor Reduction vs. combination partner at Day (#) ([3]; combination partner Bevacizumab): 48% (21)
- % Tumor Reduction vs. Vehicle at Day 21 ([3]; combination partner Bevacizumab, M830 IP): 86%
- % Tumor Reduction vs. combination partner at Day (#) ([3]; combination partner Irinotecan): 53% (21)
- % Tumor Reduction vs. Vehicle at Day 21 ([3]; combination partner Irinotecan, M830 IP, treatment initiated at about 50 mm^3): 86%
- combination compared with any agent alone ([3]; combination M830/bevacizumab): more effective than any agent alone
- efficacy against DLD-1 cancer cells in the xenograft model ([3]; combination M830/bevacizumab): effective
- combination compared with any agent alone ([3]; combination M830/irinotecan): more effective than any agent alone
- efficacy against DLD-1 cancer cells in the xenograft model ([3]; combination M830/irinotecan): effective
- triple combination compared with M830/bevacizumab combination ([3]; second study, M830 with bevacizumab and irinotecan): did not outperform the M830/bevacizumab combination therapy
- ka (mTEM8-Fc): 774900 M⁻¹ s⁻¹
- kd (mTEM8-Fc): 0.002901 s⁻¹
- ka (hTEM8-AP): 607100 M⁻¹ s⁻¹
- kd (hTEM8-AP): 0.0009533 s⁻¹
- % Tumor Reduction vs. Vehicle at Day 21 [4]: 39.5%
- AUCI ([5]; 5 mg/kg): 2242.485 µg·h/mL
- AUCT ([5]; 5 mg/kg): 2242.286 µg·h/mL
- CLF ([5]; 5 mg/kg): 2.23 mL/h/kg
- CMAX ([5]; 5 mg/kg): 67500 ng/mL
- HALF ([5]; 5 mg/kg): 8.54 h
- KEL ([5]; 5 mg/kg): 0.0811 h⁻¹
- TMAX ([5]; 5 mg/kg): 3 h
- VZF ([5]; 5 mg/kg): 0.02748 L/kg
- AUCI ([5]; 15 mg/kg): 10692.742 µg·h/mL
- AUCT ([5]; 15 mg/kg): 10692.598 µg·h/mL
- CLF ([5]; 15 mg/kg): 1.40 mL/h/kg
- CMAX ([5]; 15 mg/kg): 203000 ng/mL
- HALF ([5]; 15 mg/kg): 14.94 h
- KEL ([5]; 15 mg/kg): 0.0464 h⁻¹
- TMAX ([5]; 15 mg/kg): 3 h
- VZF ([5]; 15 mg/kg): 0.03024 L/kg
- TGD ([6]; Group 7: M830 15 mg/kg IP in combination with paclitaxel 30 mg/kg IV, maximum possible TGD 65.2 days (286%) for the 88-day study): maximum TGD
- regression responses ([6]; Group 7: M830 15 mg/kg IP in combination with paclitaxel 30 mg/kg IV, n=10): 90%
- CRs (complete regressions) [6, 7]: seven
- PRs (partial regressions) [6, 7]: two
- TFS (tumor-free survivors) at study end [6, 7]: three
- % Tumor Reduction vs. Vehicle at Day 21 ([6]; H460 Lung, M830 alone, IP): 62%
- % Tumor Reduction vs. combination partner at Day (#) ([6]; H460 Lung, combination partner Bevacizumab): 58.5% (32)
- % Tumor Reduction vs. Vehicle at Day 21 ([6]; H460 Lung, combination partner Bevacizumab, M830 IP): 94.5%
- regression (in cell of % Tumor Reduction vs. Vehicle at Day 21) [6, 8]: −61%
- % Tumor Reduction vs. combination partner at Day (#) [6, 8]: 94% (32)
- % Tumor Reduction vs. Vehicle at Day 21 ([6]; H460 Lung, combination partner Paclitaxel, M830 IP, treatment initiated at 60-80 mm^3): > 100%
- % TGD [6, 9]: 146%
- TGD [6, 9]: 33.2 days
- CRs (complete regressions) [6, 10]: 3
- PR (partial regressions) [6, 10]: 1
- TFS (tumor-free survivors) at study end [6, 10]: three
- regression responses [6, 10]: 40%
- rank of activity among regimens ([6]; M830 in combination with paclitaxel): most active treatment regimen tested
- combination compared with either agent alone [6, 11]: more effective than either agent alone
- efficacy against H460 cancer cells in the xenograft model [6, 11]: effective
